Test system: MS2 coat protein
Test: apparent KD of MS2 coat protein; designed switch direction (-1 OFF switch, 1 ON switch): 1; higher = weaker reporter binding
Procedure, shortened: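 Transcription of designed RNA switches on Illumina chips was done by stalled E. coli RNA polymerase. SNAP-549-labelled MS2 coat protein was then titrated in doubling steps from 0.7 or 1.5 nM to 3 µM, with steps of 0.8–1.5 h at the lowest and 10–20 min at the highest concentration. The per-design median over clusters of curve-fitted normalised fluorescence is reported as apparent KD.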

[1] = input ligand: microRNA oligo, concentration not stated
[2] = Eterna round: R95, input ligand: FMN 200 uM
[3] = Eterna round: R95, input ligand: microRNA oligo, concentration not stated
[4] = Eterna round: R95, input ligand: none

| Sequence | apparent KD of MS2 coat protein (input ligand: FMN 200 uM) | apparent KD of MS2 coat protein [1] | apparent KD of MS2 coat protein (input ligand: none) | apparent KD of MS2 coat protein [2] | apparent KD of MS2 coat protein [3] | apparent KD of MS2 coat protein [4] |
| --- | --- | --- | --- | --- | --- | --- |
| AAGAUGCUCGUAGGAUAUUGGAAAGGAAGUGUACAAGAAGGACGGUGUCACAUGAGGAUCACCCAUGUUACAGUCUAAGGACUA [PowerStrip SSNG 1.16] (Eterna round: R96, puzzle: Same State NG 1) | 21.5 nM | 13.2 nM | 20.3 nM |  |  |  |
| AGCGAAAUAAGCAAGGAUAUGUAAUUUGGCACAUGAGGAUCACCCAUGUCAAUCCAUUUUUUGGAACAGAAGGUGCAUUUUUUUU [ak third] (puzzle: Same State 2) |  |  |  | 69 nM | 100 nM | 102 nM |
| AAUUUAAUACAUGAGGAUCACCCAUGUAAUACUAGUAAGAUCUAGGAUAUCAGCUCGAUUAGAGCUGAGAAGGAGAUCACAUGU [SSNG3/19-C2] (Eterna round: R96, puzzle: Same State NG 3) |  | 82.9 nM |  |  |  |  |
| AACUGUUUCUGAGGAUAUCAGUAGUAUGCCAAUUGAGAAGGCAGUACAUGAGGAUCACCCAUGUUGUGGUUUGAUAGAAUGAUA [JR_SSNG1_Sub003] (Eterna round: R96, puzzle: Same State NG 1) | 182 nM | 133 nM | 214 nM |  |  |  |
| UGCAUACAUGAGGAUCACCCAUGUCAACUUAGUCGAGGAUAUGGGCAGCCCUGAGGCGAACCAGAAGGCGAAUUGU [JL-ss1-3.01 ViennaUCT mod] (puzzle: Same State 1) |  |  |  |  | 94.5 nM |  |
| AUUAAACAUGAGGAUCACCCAUGUCAACAAAGUCGAGGAUAUGGGCAAAUUAAAUAAGAACCAGAAGGCGAAUAAU [salish99_ss1_r3_060] (puzzle: Same State 1) |  |  |  | 35.9 nM | 189 nM | 269 nM |
| CUGAGGUGUCAAGGAUAUGCUACCGUUUCGGUAGCAGAAGGUGAUCACAUGAGGAUCACCCAUGUAUGCAUGCGUGAGCGUGCU [JL SSNG1 3.60] (Eterna round: R96, puzzle: Same State NG 1) |  | 17.8 nM |  |  |  |  |
| AUUGCUAUCACAGGAUAUCAUGCGAAAAUCGCGUGAGAAGGGUGGACUCUGUCAUUCACGGAGGACAUGAGGAUCACCCAUGUC [SS NG10LRO16] (Eterna round: R96, puzzle: Same State NG 1) | 363 nM | 18.9 nM | 45.8 nM |  |  |  |
| AUAAGUUCGAUGCUCGUCUCUCCGUACAAACAUGAGGAUCACCCAUGUGGUCAGGAAGUAGCCCGACCAGUAUGGCC [Leedqu] (puzzle: Sensor for hsa-mir-208a) |  |  |  | 29 nM | 24.6 nM | 34 nM |
| GAGGGACAGACCAACAUGAGGAUCACCCAUGUCCUCGGAGGUCAGGAUAUCCGGAGGUAGCCGAAGGAGAAGGGACGGUGAACC [AK SSNG3-V2-30.1] (Eterna round: R96, puzzle: Same State NG 3) | 322 nM | 136 nM | 197 nM |  |  |  |
| GCUAGAAUAAAUGCUAACAUGAGGAUCACCCAUGUAUGUUGGCAGGAUAUCGUUUGCAAAGCAAACGAGAAGGGCCAUACUAGC [Mat - Same State NG 3 - JL Mod - D26] (Eterna round: R96, puzzle: Same State NG 3) | 23.1 nM | 26.3 nM | 38.1 nM |  |  |  |
| GGUCCAGCCUGAGCUGGACAAAAGCAUGUACAUGAGGAUCACCCAUGUCAUGUACAAGCUUUUUGCUCGUCUUAAAU [Mat - hsa-mir-208a - 84] (puzzle: Sensor for hsa-mir-208a) |  |  |  | 495 nM | 16.1 nM | 800 nM |
| UUGAUGUACUGAGGAUAUCGUGUCGUCUGAUUUUACAUGAGGAUCACCCAUGUGGGUUGUGGUAUCGAGAAGGCAGUUUUCUUA [JR_SSNG2_Sub029] (Eterna round: R96, puzzle: Same State NG 2) | 50.4 nM | 84.3 nM | 158 nM |  |  |  |
| UUAUCUUUCCGAGGAUAUCCAUAUAAUUUACAUGAGGAUCACCCAUGUUAUUGGGAGUUUUUUUAGGAGAAGGCGGUUGUAGAU [JR_SSNG2_Sub051] (Eterna round: R96, puzzle: Same State NG 2) | 85.1 nM | 61.4 nM | 71.1 nM |  |  |  |
| GCCGAACAUGAGGAUCACCCAUGUCUGGGUAAUCAAGGAUAUGGGAAGGCUUUGCCAUGACCAGAAGGUGGUUAUC [Zari] (Eterna round: R96, puzzle: Same State 1) | 26.3 nM | 38.9 nM | 53.5 nM |  |  |  |
| GGUCGGACAAAACAUGAGGAUCACCCAUGUCCGGAAACGGCAUAGGAUAUCUGUCCGAAAAGGUCAGAGAAGGGUGAACCGACC [Fiskers NG3ss - 70] (Eterna round: R96, puzzle: Same State NG 3) | 91.2 nM | 26.1 nM | 140 nM |  |  |  |

| Sequence | apparent KD of MS2 coat protein (input ligand: FMN 200 uM) | apparent KD of MS2 coat protein [1] | apparent KD of MS2 coat protein (input ligand: none) | apparent KD of MS2 coat protein [2] | apparent KD of MS2 coat protein [3] | apparent KD of MS2 coat protein [4] |
| --- | --- | --- | --- | --- | --- | --- |
| GCUUCACAUGAGGAUCACCCAUGUCUUCGGAGUCGAGGAUAUGGUAACUGUAAACAGUUGCCAGAAGGCGAGGAGC [SS1 - Son of Teenbexe v9] (Eterna round: R96, puzzle: Same State 1) | 48.8 nM | 55.3 nM | 66 nM |  |  |  |
| ACACAGCUGGGUGAGGAUAUCGGUGGUAAAACAUGAGGAUCACCCAUGUCCGAAGCUCGGACUUCCGAGAAGGCGCCCGGCUGCA [Areronanma] (puzzle: Same State 2) |  |  |  | 12.4 nM | 86.4 nM | 151 nM |
| AACAAUCUAUCUGAGGAUAUCAUGAAUAAAACAUGAGGAUCACCCAUGUGCAGGAAAACUGCAUAUGAGAAGGCAGAUAGAUUGU [Mat - Same State 2 - Mod - D11] (puzzle: Same State 2) |  |  |  | 69.3 nM | 2610 nM | 2140 nM |
| ACUUAGUACAAUUUAGAUCUACAUGAGGAUCACCCAUGUACUGAGGAUAUCAGCUCGAAUAGAGCUGAGAAGGCAGAAGUACUU [SSNG3/8-A1] (Eterna round: R96, puzzle: Same State NG 3) |  | 192 nM |  |  |  |  |
| GGUAGGUUACUACCAAACAUGAGGAUCACCCAUGUAAGUGGGAAGGAUAUGGUACCUUUUAGGUACCAGAAGGUCCAAUUAAUU [JL Fiskers NG3ss - 2 mod 5] (Eterna round: R96, puzzle: Same State NG 3) | 205 nM | 511 nM | 3700 nM |  |  |  |
| AUUUUUUAUGCAGGAUAUGAUUAACAUGAGGAUCACCCAUGUGGUGUUGUGAGUAAGGAGAGUGAUCAGAAGGGCAUUUUUUUU [JMF's solution 68] (Eterna round: R96, puzzle: Same State NG 2) | 579 nM | 318 nM | 401 nM |  |  |  |
| ACAUGAGACGCAGGAUAUCUUGUACCUACAUGUGACAUGAGGAUCACCCAUGUGGUAAGUAUGAUAGAGAAGGGCGAGAUAUGU [Equivalance 56 - Jieux - Same State NG 2] (Eterna round: R96, puzzle: Same State NG 2) | 19.7 nM | 31.6 nM | 58.9 nM |  |  |  |
| GUUACAUGAGGAUCACCCAUGUAUGUGUGGGAGUAAGUGUCUUAGGAUAUCUAUCAUUUAAUUGAAGAGAAGGAAGAUUGUUGU [JMF's solution 99] (Eterna round: R96, puzzle: Same State NG 3) | 140 nM | 71.2 nM | 113 nM |  |  |  |
| AACCCGAUGGAAGGAUAUGGCACCUUAUUGGUGCCAGAAGGUCCAAACAUGAGGAUCACCCAUGUGGGCCGGUCGAAAGACCGG [Fiskers NG1ss - 11] (Eterna round: R96, puzzle: Same State NG 1) | 32.4 nM | 53.2 nM | 75.2 nM |  |  |  |
| GCGAGCGUACUUGCAGACAUGAGGAUCACCCAUGUAACUGGACAGGAUAUGGUACCGUUUCGGUACCAGAAGGGUUUAUCAUGU [JL SSNG3 3.55] (Eterna round: R96, puzzle: Same State NG 3) | 167 nM | 140 nM | 193 nM |  |  |  |
| CCCUCACAUGAGGAUCACCCAUGUCCUAGCAGGUCAGGAUAUAGCCCGCAUCCGCUGCGGCUAGAAGGGACAGCUG [JR_SS001_Sub610] (Eterna round: R96, puzzle: Same State 1) | 148 nM | 135 nM | 176 nM |  |  |  |
| GGUCCAGCCUGAGCUGGACAAAAGCAUGUACAUGAGGAUCACCCAUGUUCAUGUACAAGCUUUUUGCUCGUCUUAAA [salish99_208a_r3_035] (puzzle: Sensor for hsa-mir-208a) |  |  |  | 427 nM | 14.7 nM | 633 nM |
| GCGAGCGUACUUGCUACAUGAGGAUCACCCAUGUUUGAUGGACAGGAUAUGGUACCGUUUCGGUACCAGAAGGGUUCACAUGUA [JL SSNG3 3.79] (Eterna round: R96, puzzle: Same State NG 3) | 71.4 nM | 268 nM | 214 nM |  |  |  |
| UCUUGGUUUUUGCUCGUUUUUUGUGUUGAACAUGAGGAUCACCCAUGUAUUGUACGGUCCAAUUUGGUAAUGGUCCG [JMF 29] (puzzle: Sensor for hsa-mir-208a) |  |  |  | 25.2 nM | 15.6 nM | 26.8 nM |
| GCCGCACAUGAGGAUCACCCAUGUAAUUACAUGGGAGGAUAUCAGUGCUCGAAAGAGCACUGAGAAGGCCUGAGGC [SS1 - Omei A v1] (Eterna round: R96, puzzle: Same State 1) | 887 nM | 42.4 nM | 74.8 nM |  |  |  |

From the supplement of paper PMC9170038
